The text below walks through data of patent publication US20250276075A1, “METHODS OF TREATING AXL-EXPRESSING CANCERS WITH ANTI-AXL ANTIBODIES, ANTIBODY FRAGMENTS AND THEIR IMMUNOCONJUGATES” (BIOATLA, INC., priority 2020, published 2025).

“Also recorded” adds a separate entry of the source.

The nature of data set [1]: BA3011 repeat dose intravenous toxicology study in monkey. In kind it is in vivo, cynomolgus monkey. As to the method: The nonclinical intravenous (IV) toxicity of BA3011 was evaluated in the monkey in an initial dose-range finding study followed by a definitive Good Laboratory Practice repeat dose toxicology study. […] Many of the toxicities observed with BA3011 are similar to other ADCs conjugated to MMAE.
Based on the results at the 5 and 10 mg/kg/dose, the no-observed-adverse-effect-level (NOAEL) of BA3011 was considered to be 1 mg/kg/dose for both males and females. […] The highest non-severely toxic dose (HNSTD) was 5 mg/kg/dose, with C0 on Day 22 at 111 μg/mL and AUC0-inf at 2370 μg·h/mL.

For a further data set, the system named is cynomolgus monkey Axl. The experiment in a line: BA3011 binding to cynomolgus monkey Axl.
The next data set deals with advanced sarcoma. The experiment in a line: Phase 1 clinical study of BA3011: antitumor activity (RECIST v1.1, change in sum of target lesions). In kind it is in vivo, human. The text has this:
The primary efficacy endpoint in Phase 2 is objective response (OR) per RECIST v1.1 using blinded independent central review (BICR). Objective response rate (ORR) is defined as the proportion of subjects with a best overall response of confirmed CR or confirmed PR that occur prior to the initiation of subsequent anticancer treatment. ORR will be estimated with a 95% CI using the exact probability method for each sarcoma subtype and overall in each of the 2 treatment groups (BA3011 alone and in combination with nivolumab). Other efficacy endpoints are duration of response (DOR), progression-free survival (PFS), best overall response (OR), disease control rate (DCR), time to response (TTR), progression-free rate (PFR) at 12 weeks, overall survival (OS), and percent change from baseline in target lesion sum of diameters. All efficacy endpoints except PFS and OS will be summarized primarily based on the full analysis set (FAS). PFS and OS will be summarized based on the As-Treated Population. Time-to-event data will be summarized using Kaplan-Meier estimates. Response rates and their confidence intervals will be estimated using the exact probability method. Graphical analyses will include spider and waterfall plots for the change and best change from baseline in tumor size, respectively.
Study BA3011-001 was an ongoing, multi-center, open-label, Phase 1/2 first-in-human trial of BA3011.
(§1) In Phase 1 (NCT03425279), BA3011 was administered once (Q3W) or twice (2Q3W) every 3 weeks via intravenous (IV) infusion.

The next data set addresses T1, mouse Axl (Mus musculus, UniProt Q00993).
T1 sequence (Q00993 19-888): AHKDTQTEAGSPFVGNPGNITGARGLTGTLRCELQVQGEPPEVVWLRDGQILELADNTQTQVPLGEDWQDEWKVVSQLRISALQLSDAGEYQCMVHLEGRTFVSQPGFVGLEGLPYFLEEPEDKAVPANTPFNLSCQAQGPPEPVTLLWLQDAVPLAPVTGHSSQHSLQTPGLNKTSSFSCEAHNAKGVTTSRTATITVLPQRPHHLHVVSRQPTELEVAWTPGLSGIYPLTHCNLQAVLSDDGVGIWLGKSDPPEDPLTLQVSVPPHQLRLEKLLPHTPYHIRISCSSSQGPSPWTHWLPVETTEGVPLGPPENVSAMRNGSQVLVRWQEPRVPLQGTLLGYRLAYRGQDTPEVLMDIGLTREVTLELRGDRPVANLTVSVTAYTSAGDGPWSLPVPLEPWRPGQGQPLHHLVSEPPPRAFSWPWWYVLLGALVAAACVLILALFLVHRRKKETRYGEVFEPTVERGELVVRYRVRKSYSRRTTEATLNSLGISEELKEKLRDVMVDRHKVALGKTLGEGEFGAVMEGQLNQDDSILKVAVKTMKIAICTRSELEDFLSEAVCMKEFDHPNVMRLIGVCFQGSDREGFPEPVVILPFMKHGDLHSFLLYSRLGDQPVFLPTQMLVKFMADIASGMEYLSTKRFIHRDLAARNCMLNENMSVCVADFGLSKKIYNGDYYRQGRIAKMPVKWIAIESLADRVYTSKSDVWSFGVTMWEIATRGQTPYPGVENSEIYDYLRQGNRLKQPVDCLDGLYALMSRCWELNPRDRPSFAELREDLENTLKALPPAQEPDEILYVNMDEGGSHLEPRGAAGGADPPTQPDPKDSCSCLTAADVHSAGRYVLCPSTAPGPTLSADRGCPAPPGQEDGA
Kind of data set: BA3011 binding to mouse Axl.

Data set [2] can be described thus: Phase 1 clinical study of BA3011: pharmacokinetics. In kind it is in vivo, human.
Text: • PK of BA3011: plasma concentrations of ADC, total antibody and MMAE, and PK parameters, including Cmax and AUC. • Efficacy (expansion cohorts only): ORR, disease control rate (DCR), time to response (TTR), duration of response (DOR), best objective response (OR), progression-free survival (PFS), overall survival (OS), and percent change from baseline in tumor size. • Immunogenicity of BA3011: the number and percentage of patients who develop detectable anti-drug antibodies (ADAs).
Sample collection timepoints for BA3011 PK, PD, and immunogenicity testing are presented in Table 18 (Phase 1) and Table 19 (Phase 2).
as §1

For data set [3], the system named is human tumor cell line derived xenograft tumors expressing Axl. The experiment in a line: BA3011 anti-tumor efficacy in xenograft mouse models. In kind it is in vivo. How it is done:
Tumor cell lines representing NSCLC (LCLC103H), prostate (DU145), and pancreatic tumor (MIAPaCa2) were tested in this in vivo mouse model system. Once tumors were established at a size of about 150 mm3, animals were treated with BA3011 at the indicated dose levels following the indicated schedule. BA3011 induced greater than 70% TGI in 4 out of 7 models tested, as shown on FIG. 17D.

The mark [4] stands for this setting: at the dose and schedules tested.

B1: Mecbotamab vedotin (conjugate, chains of the INN, looked up)
VH: EVQLVQSGAEVKKPGATVKISCKVSGYSFWGATMNWIRQPPGKGLEWIGLIKPSNGGTSYNQKFKGRVTISADKSISTAYLQWSSLKASDTAMYYCAHGHYESYEAMDYWGQGTLVTVSS
VL: DIQMTQSPSSLSASVGDRVTITCKASQDVVSAVAWYQQKPGQAPRLLIYWQDTRHTGVPSRFSGSGSGTEFTLTISSLQPDDFATYYCQEHFSPPLTFGQGTKVEIK
modifications: MC-vc-PAB-MMAE conjugate
Turning to B1, the “pathological changes in lymphoid organs” value in data set [1] (10 mg/kg/dose in males and 5 mg/kg/dose in females) was “adverse pathological changes in lymphoid organs”. Also, the mortality result in data set [1] (10 mg/kg/dose, Days 1 and 22, IV slow bolus) was “early deaths in females”. Also, in data set [1] (5 and 10 mg/kg/dose in both sexes), the hematological changes entry was “adverse hematological changes”. Moreover, the “changes in body weight, electrocardiogram (ECG), ophthalmology, or urinalysis” value in data set [1] (any of the dose levels tested) was “No test article-related changes”. The “highest non-severely toxic dose (HNSTD)” value in data set [1] (cynomolgus monkey, in vivo) amounted to 5 mg/kg/dose. Further, the “cross-reactivity to the cynomolgus Axl protein” value with cynomolgus monkey Axl was “cross-reacted”. Further, in the data set with cynomolgus monkey Axl (conditions mimicking the TME (pH 6.0-7.0)), the “binding to cynomolgus monkey Axl” value is “high affinity and specificity”. In addition, in the data set on cynomolgus monkey Axl (conditions mimicking the normal tissue environment (pH 7.3-7.4)), the “binding to cynomolgus monkey Axl” value is listed as “reduced binding”. Moreover, the “antitumor activity in sarcoma patients” value with advanced sarcoma (Phase 1) is on record as “correlated with higher levels of AXL tumor membrane expression; also recorded: evidence of antitumor activity was observed”. Moreover, the confirmed partial responses with advanced sarcoma (of 7 treatment refractory sarcoma patients with baseline TmPS≥70 dosed at 1.8 mg/kg (Q3w or 2Q3w)) is given as 4. In addition, the “duration of response to therapy” value in the data set on advanced sarcoma (sarcoma patients, FIG. 24) is listed as “Prolonged response to therapy”. In addition, in the data set with mouse Axl, the “binding to mouse Axl” value is listed as “not mouse or rat Axl; also recorded: lacked binding to the rodent enzyme”. Further, in data set [2], the PK profile entry is “approximately dose proportional” and the half-life entry is reported as “approximately 4 days”. Also, in data set [3] (setting [4]), the body weight loss result is on record as “did not induce body weight loss” and the “clinical signs of toxicity” value was “no other clinical signs of toxicity were noted”. The “tumor growth inhibition (TGI) relative to control” value in data set [3] (in 4 out of 7 models tested) was “greater than 70%”.
